Measured values as given in IntAct's records for PubMed 19804756.

How the values were obtained:
nbn_human NBN = nbn_human NBN (UniProt O60934)
nbs1_schpo nbs1 = nbs1_schpo nbs1 (UniProt O43070)
Sequence of nbs1_schpo nbs1 (O43070 whole entry): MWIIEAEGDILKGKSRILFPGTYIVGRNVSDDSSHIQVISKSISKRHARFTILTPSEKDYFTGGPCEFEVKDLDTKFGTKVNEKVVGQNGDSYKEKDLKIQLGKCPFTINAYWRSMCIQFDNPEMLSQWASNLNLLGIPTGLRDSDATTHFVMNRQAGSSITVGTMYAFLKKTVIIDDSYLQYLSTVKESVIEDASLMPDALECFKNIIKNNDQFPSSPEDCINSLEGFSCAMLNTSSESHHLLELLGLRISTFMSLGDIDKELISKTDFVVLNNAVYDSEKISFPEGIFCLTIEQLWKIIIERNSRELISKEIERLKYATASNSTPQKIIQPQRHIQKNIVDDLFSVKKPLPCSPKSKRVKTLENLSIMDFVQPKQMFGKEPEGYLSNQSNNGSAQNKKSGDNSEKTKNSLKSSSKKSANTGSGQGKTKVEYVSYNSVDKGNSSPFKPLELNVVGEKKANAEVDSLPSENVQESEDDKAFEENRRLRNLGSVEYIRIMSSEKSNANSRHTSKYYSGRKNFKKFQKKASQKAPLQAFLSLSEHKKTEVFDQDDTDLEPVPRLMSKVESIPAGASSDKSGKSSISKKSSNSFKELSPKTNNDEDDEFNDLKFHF

Sequence of nbn_human NBN (O60934 whole entry): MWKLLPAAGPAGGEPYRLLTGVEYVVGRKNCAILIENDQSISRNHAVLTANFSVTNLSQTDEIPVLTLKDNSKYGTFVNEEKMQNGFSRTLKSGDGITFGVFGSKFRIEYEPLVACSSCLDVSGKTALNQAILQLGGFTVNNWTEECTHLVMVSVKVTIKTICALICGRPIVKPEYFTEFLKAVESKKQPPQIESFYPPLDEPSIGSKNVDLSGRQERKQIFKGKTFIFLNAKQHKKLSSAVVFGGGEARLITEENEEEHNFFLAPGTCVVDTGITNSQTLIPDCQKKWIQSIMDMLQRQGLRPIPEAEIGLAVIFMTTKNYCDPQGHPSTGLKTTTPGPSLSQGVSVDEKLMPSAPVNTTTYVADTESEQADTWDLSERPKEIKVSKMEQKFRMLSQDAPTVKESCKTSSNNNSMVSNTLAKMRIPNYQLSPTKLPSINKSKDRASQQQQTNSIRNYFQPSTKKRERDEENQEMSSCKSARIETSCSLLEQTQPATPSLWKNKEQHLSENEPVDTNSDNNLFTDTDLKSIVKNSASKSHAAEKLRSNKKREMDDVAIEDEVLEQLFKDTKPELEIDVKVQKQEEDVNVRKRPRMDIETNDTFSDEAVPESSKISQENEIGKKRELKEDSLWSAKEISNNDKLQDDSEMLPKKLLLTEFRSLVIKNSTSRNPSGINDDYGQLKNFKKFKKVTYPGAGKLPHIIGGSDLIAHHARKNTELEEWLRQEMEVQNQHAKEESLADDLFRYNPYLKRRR

Substance | effect of a mutation on the interaction (nbn_human NBN) | effect of a mutation on the interaction (nbs1_schpo nbs1)
Mediator of DNA damage checkpoint protein 1 (Homo sapiens), Q14676 T331S | decreasing interaction | 
Mediator of DNA damage checkpoint protein 1 (Homo sapiens), Q14676 E334A |  | decreasing interaction
